Reference: the supplement of paper PMC9876800

Tested on: peptide library, one residue held at a place counted from the S/T acceptor
Experiment: relative phosphorylation of the sub-library (ratio to the mean residue at this position); higher = residue favoured
Details: human
Summary of the method: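 Purified recombinant kinases were reacted in 384-well plates with biotinylated degenerate peptide sub-libraries, each having one residue fixed at one position around a central Ser/Thr. The reaction mix contained 50 μM peptide plus 50 μM ATP spiked with γ-32P-ATP and ran for 90 min under kinase-specific conditions. Relative sub-library phosphorylation, taken from densitometry of phosphorimaged streptavidin membrane spots, is a ratio to the mean residue at that position.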

Sequence of CHEK1, construct: Full length (O14757 whole entry, looked up): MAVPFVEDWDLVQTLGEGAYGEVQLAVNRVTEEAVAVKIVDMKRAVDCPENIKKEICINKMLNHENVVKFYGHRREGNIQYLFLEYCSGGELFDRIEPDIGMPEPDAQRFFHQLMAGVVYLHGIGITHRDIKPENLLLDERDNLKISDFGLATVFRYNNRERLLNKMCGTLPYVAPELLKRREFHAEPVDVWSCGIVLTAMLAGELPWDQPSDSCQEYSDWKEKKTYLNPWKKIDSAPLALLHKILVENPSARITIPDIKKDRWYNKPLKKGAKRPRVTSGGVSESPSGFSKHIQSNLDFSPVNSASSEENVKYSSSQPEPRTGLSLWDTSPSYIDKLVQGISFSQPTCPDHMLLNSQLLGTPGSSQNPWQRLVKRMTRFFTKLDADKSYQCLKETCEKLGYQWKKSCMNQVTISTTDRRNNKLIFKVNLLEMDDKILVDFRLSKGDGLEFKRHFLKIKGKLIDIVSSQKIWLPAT
Sequence of HIPK1, construct: aa158-555 (Q86Z02 158-555, looked up): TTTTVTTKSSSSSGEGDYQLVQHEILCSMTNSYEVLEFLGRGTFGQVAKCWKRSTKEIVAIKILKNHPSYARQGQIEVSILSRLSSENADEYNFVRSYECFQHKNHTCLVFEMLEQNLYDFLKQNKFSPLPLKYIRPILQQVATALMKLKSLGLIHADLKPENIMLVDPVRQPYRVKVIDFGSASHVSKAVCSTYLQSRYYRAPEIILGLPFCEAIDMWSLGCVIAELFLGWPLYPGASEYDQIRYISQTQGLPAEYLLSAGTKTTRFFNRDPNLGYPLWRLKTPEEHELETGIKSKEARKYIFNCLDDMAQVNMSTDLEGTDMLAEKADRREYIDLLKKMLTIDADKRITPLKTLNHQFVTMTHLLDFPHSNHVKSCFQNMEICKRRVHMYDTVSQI

HIPK1, construct: aa158-555 (from UniProt Q86Z02)
relative phosphorylation
Details	at +1	at +2	at +3	at +4	at -1	at -2	at -3	at -4	at -5
A fixed	0.711	1.04	0.979	0.83	1.21	2.16	0.93	1	0.905
D fixed	0.165	0.679	0.59	0.795	0.471	0.278	0.49	0.719	0.716
E fixed	0.193	0.512	0.51	0.687	0.485	0.283	0.464	0.762	0.634
F fixed	0.264	1.15	0.885	1.04	0.567	0.398	0.342	0.668	0.793
G fixed	0.896	1.37	1.19	1.14	1.26	0.872	1.27	1.13	0.991
H fixed	0.354	1.23	1.17	1.07	0.881	0.454	0.698	0.884	1.06
I fixed	0.421	0.708	0.92	0.978	0.536	0.999	0.42	0.781	0.883
K fixed	0.503	1.42	0.886	1.12	1.75	0.898	1.13	1.3	1.26
L fixed	0.329	0.928	1.2	1	0.682	0.862	0.525	0.876	0.84
M fixed	0.272	0.815	0.972	1.04	0.916	0.607	0.484	0.793	0.742
N fixed	0.318	1.04	0.826	1.01	0.761	0.735	0.677	0.704	0.928
P fixed	8.97	1.1	2.4	1.14	1.91	2.58	1.07	1.22	1.21
Q fixed	0.399	0.888	0.885	0.981	0.967	0.605	0.71	0.856	0.89
R fixed	1.85	1.55	1.06	1.13	2.49	3.33	6.49	3.08	2.25
V fixed	0.793	0.755	0.863	0.954	0.645	1.17	0.47	0.706	0.794
W fixed	0.284	0.966	0.886	1.16	0.673	0.389	0.426	0.784	0.825
Y fixed	0.276	0.848	0.772	0.917	0.801	0.381	0.397	0.723	1.27
pThr fixed	0.387	0.46	0.541	0.711	0.485	1.05	0.712	0.94	1.05
pTyr fixed	0.453	0.444	0.772	0.757	0.599	0.431	0.644	0.648	1.04

CHEK1, construct: Full length (from UniProt O14757)
relative phosphorylation
Details	at +1	at +2	at +3	at +4	at -1	at -2	at -3	at -4	at -5
A fixed	0.806	1.04	0.824	0.997	0.779	1.18	0.579	1.17	0.706
D fixed	1.03	1.19	1.4	1.19	1.06	0.387	0.353	0.714	0.379
E fixed	0.981	0.932	1.01	0.882	0.709	0.977	0.853	1.15	0.261
F fixed	1.43	0.719	0.731	0.754	0.637	1.16	0.39	0.817	2.06
G fixed	1.21	0.978	1.16	1.18	0.915	0.619	0.685	0.811	0.331
H fixed	1.21	1.38	1.2	1.17	1.27	2.01	2.02	1.14	0.51
I fixed	0.801	0.808	0.832	0.968	0.396	0.56	0.253	0.952	2.21
K fixed	0.614	0.531	0.588	0.687	1.54	0.887	2.36	1.45	0.405
L fixed	0.98	0.756	0.908	1.18	0.805	0.738	0.281	0.919	2.9
M fixed	1.57	0.935	0.985	1.06	0.901	1.14	0.625	1.26	1.98
N fixed	1.65	1.82	1.47	1.23	1.68	1.42	0.992	0.9	0.361
P fixed	0.429	0.973	1.2	1.57	1.84	0.547	1.37	0.458	0.49
Q fixed	1.19	1.36	1.15	1.12	1.36	1.17	0.995	1.07	0.422
R fixed	0.599	0.692	0.57	0.547	0.98	0.895	3.45	1.41	0.759
V fixed	0.686	0.96	0.802	0.713	0.48	0.701	0.323	1.05	1.25
W fixed	0.94	1.01	1.18	0.874	0.682	1.2	0.857	0.829	1.32
Y fixed	0.869	0.921	0.995	0.886	0.963	1.39	0.617	0.902	0.661
pThr fixed	0.831	0.822	0.733	0.892	0.188	0.139	0.198	0.311	0.164
pTyr fixed	0.821	1.17	0.94	0.812	0.495	0.382	0.193	0.343	0.443
